# Target: complement component C3b, site-specifically biotinylated at Cys-1010 (human) (UniProt P01024)
# Test: SPR
Substance,"Ka-1 (two-state model, first step, association)",Kd,"Kd-1 (two-state model, first step, dissociation)","Kd-2 (two-state model, second step, reverse)","Ka-2 (two-state model, second step, forward)"
Native FB purified from human serum (natural protein),168000 M⁻¹ s⁻¹,109 nM,0.0702 s⁻¹,0.00249 s⁻¹,
recombinant FB with D279G and K350N (from UniProt P00751 26-764) (natural protein),225000 M⁻¹ s⁻¹,,0.0526 s⁻¹,0.0045 s⁻¹,
recombinant FB with F286L mutation (from UniProt P00751 26-764) (natural protein),551000 M⁻¹ s⁻¹,,0.0229 s⁻¹,0.0083 s⁻¹,0.0289 s⁻¹
recombinant wild-type FB (from UniProt P00751 26-764) (natural protein),325000 M⁻¹ s⁻¹,,0.0796 s⁻¹,0.0138 s⁻¹,

# Second part, the substance after the results:
"Ka-1 (two-state model, first step, association)",Kd,"Kd-1 (two-state model, first step, dissociation)","Kd-2 (two-state model, second step, reverse)","Ka-2 (two-state model, second step, forward)",Substance
304000 M⁻¹ s⁻¹,,0.0376 s⁻¹,0.00941 s⁻¹,,recombinant FB with D279G mutation (from UniProt P00751 26-764) (natural protein)
256000 M⁻¹ s⁻¹,104 nM,0.0469 s⁻¹,0.00836 s⁻¹,,"recombinant FB with D279G, K350N, and S699A (from UniProt P00751 26-764) (natural protein)"
280000 M⁻¹ s⁻¹,159 nM,0.0807 s⁻¹,0.00723 s⁻¹,,recombinant FB with K323E mutation (from UniProt P00751 26-764) (natural protein)
131000 M⁻¹ s⁻¹,322 nM,0.0995 s⁻¹,0.00419 s⁻¹,,recombinant FB with K350N mutation (from UniProt P00751 26-764) (natural protein)

# — PMC11573645
